Measured values as given in patent US20170246252A1.

Target: endogenous mIL-10 receptors (R1 and R2) on MC/9 mouse mast cells (mouse) (UniProt Q61727)
Experiment: cell-based or functional assay

UniProt Q61727, sequence (Q61727 17-575, chain 1 of 2): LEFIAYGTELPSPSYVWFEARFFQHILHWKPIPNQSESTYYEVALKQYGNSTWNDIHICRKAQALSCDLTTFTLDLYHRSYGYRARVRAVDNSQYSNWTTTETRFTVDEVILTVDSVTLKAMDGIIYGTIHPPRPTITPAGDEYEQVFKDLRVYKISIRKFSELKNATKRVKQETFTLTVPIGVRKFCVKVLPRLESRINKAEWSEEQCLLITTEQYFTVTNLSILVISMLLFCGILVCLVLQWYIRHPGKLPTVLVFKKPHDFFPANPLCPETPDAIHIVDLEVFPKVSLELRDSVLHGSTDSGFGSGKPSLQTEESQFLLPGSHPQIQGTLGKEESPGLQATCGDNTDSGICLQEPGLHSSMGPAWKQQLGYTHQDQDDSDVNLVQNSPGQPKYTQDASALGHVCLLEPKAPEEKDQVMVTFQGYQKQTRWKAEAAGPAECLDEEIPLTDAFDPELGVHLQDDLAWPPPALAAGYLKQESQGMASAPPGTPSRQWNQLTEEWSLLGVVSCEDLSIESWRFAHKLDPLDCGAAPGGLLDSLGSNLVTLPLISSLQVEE
UniProt Q61727, sequence (Q61190 20-349, chain 2 of 2, further chain): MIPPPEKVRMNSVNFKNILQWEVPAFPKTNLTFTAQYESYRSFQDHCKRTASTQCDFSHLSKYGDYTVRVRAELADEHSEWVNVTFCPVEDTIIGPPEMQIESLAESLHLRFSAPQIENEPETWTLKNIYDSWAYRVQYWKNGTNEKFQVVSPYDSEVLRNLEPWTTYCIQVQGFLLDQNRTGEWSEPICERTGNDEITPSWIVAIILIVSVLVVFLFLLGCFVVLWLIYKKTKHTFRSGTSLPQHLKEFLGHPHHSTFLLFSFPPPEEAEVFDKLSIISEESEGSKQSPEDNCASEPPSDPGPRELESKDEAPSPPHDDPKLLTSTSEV

EC50 (ng/mL) in MC/9 Assay (proliferation with mIL-4 co-stimulation, Alamar Blue)	specific activity in the MC/9 bioassay relative to mIL-10	Substance
0.571 ng/mL		Murine IL-10 (from UniProt P18893 19-178) (ligand)
4.04 ng/mL	7 fold lower	PEG-mIL-10 (from UniProt P18893 19-178) (ligand)
